Measured values from US20260234240A1 (published 2026).

What was measured:
[1] = molecular target: MK1966; assay: SPR
[2] = molecular target: MK1966 (benchmark); assay: kinetic binding assay
[3] = molecular target: cynoIL10; assay: kinetic binding assay
[4] = molecular target: Cyno IL10; assay: SPR
[5] = molecular target: T1, IL-10 (Accession no. P22301) (UniProt P22301 19-178); assay: SPR
T1 chain: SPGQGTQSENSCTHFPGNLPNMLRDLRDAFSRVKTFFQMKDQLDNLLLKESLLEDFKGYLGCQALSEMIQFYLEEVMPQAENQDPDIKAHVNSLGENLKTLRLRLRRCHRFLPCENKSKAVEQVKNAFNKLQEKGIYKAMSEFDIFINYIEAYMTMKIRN

[6] = molecular target: T1, IL-10 (Accession no. P22301); assay: kinetic binding assay
[7] = molecular target: hIL10R1; assay: kinetic binding assay

B1: Human IL10 (ligand)
chain: SPGQGTQSENSCTHFPGNLPNMLRDLRDAFSRVKTFFQMKDQLDNLLLKESLLEDFKGYLGCQALSEMIQFYLEEVMPQAENQDPDIKAHVNSLGENLKTLRLRLRRCHRFLPCENKSKAVEQVKNAFNKLQEKGIYKAMSEFDIFINYIEAYMTMKIRN
How did the Kd [1] turn out when B1 was run?
The Kd was 0.14 nM.

B2: hIL10 (ligand)
chain: SPGQGTQSENSCTHFPGNLPNMLRDLRDAFSRVKTFFQMKDQLDNLLLKESLLEDFKGYLGCQALSEMIQFYLEEVMPQAENQDPDIKAHVNSLGENLKTLRLRLRRCHRFLPCENKSKAVEQVKNAFNKLQEKGIYKAMSEFDIFINYIEAYMTMKIRN
Which Kd [2] does the source give for B2 here?
The Kd was 0.0266 nM.

B3: h49G08 (antibody, V domains shown)
VH: EVQLVESGGGLVQPGGSLRLSCAASGFTFSDYYMYWVRQAPGKGLEWVSTISDGGSYTYYPDSVKGRFTISRDNAKNNLYLQMNSLRAEDTAVYYCARGYYYGLFTYWGQGTLVTVSS
VL: DIQMTQSPSSLSASVGDRVTITCRASQDVNTGLNWYQQKPGQAPKLLIYWASSRQSGVPSRFSGSGSGTDFTLTISSLQPEDFATYYCQQHYSTPYTFGQGTKLEIK
With B3 as the binder, how does the Kd [3] read?
Its Kd is under 0.001 nM.

B4: hu49G08 (antibody, V domains shown)
VH: EVQLVESGGGLVQPGGSLRLSCAASGFTFSDYYMYWVRQAPGKGLEWVSTISDGGSYTYYPDSVKGRFTISRDNAKNNLYLQMNSLRAEDTAVYYCARGYYYGLFTYWGQGTLVTVSS
VL: DIQMTQSPSSLSASVGDRVTITCRASQDVNTGLNWYQQKPGQAPKLLIYWASSRQSGVPSRFSGSGSGTDFTLTISSLQPEDFATYYCQQHYSTPYTFGQGTKLEIK
How did the Kd [4] turn out when B4 was run?
The Kd was 0.11 nM.

B5: 49G08_H1L2 (antibody, V domains shown)
VH: EVQLVESGGGLVQPGGSLRLSCAASGFTFSDYYMYWVRQAPGKGLEWVSTISDGGSYTYYPDSVKGRFTISRDNAKNNLYLQMNSLRAEDTAVYYCARGYYYGLFTYWGQGTLVTVSS
VL: DIQMTQSPSSLSASVGDRVTITCRASQDVNTGLNWYQQKPGQAPKLLIYWASSRQSGVPSRFSGSGSGTDFTLTISSLQPEDFATYYCQQHYSTPYTFGQGTKLEIK
Which Kd [5] does the source give for B5 here?
Its Kd is 0.16 nM.

What about the Kd [6] of the same binder?
Its Kd is 0.0199 nM.

B6: αIL-10R candidate (antibody, V domains shown)
VH: QVQLQESGPGLVKPSETLSLTCTVSGGSISSDYWSWIRQPAGKRLEWIGRIFTSGSTNYNPSLKSRVTMSVDTSKNQFSLKLNSLTAADTAVYYCARDDWYFDLWGRGTLVTVSS
VL: EIVMTQSPATLSVSPGERATLSCRASQSVSNNLAWYQQKPGQAPRFLIYGASTRATGMPARFSGSGSGTEFTLTISSLQSEDFAVYFCQQYNEWPWTFGQGTKVEIK
Which Kd [7] does the source give for B6 here?
The Kd was 0.117 nM.
